Results reported in article PMC4499135.

Columns and labels:
Assay in all cases: EMSA
TRF2ΔB = conditions: 20 mM Hepes pH 7.9, 100 mM NaCl, 50 mM KCl, 1 mM MgCl2, 0.1 mM EDTA, 1 mM DTT, 5% glycerol, 0.5 mg/ml BSA, 0.1% NP-40, chicken erythrocyte nucleosome carrier …
TRF2AΔB = conditions: 20 mM Hepes pH 7.9, 100 mM NaCl, 50 mM KCl, 1 mM MgCl2, 0.1 mM EDTA, 1 mM DTT, 5% glycerol, 0.5 mg/ml BSA, 0.1% NP-40, chicken erythrocyte nucleosome carrier …
TRF2 = conditions: 20 mM Hepes pH 7.9, 100 mM NaCl, 50 mM KCl, 1 mM MgCl2, 0.1 mM EDTA, 1 mM DTT, 5% glycerol, 0.5 mg/ml BSA, 0.1% NP-40, chicken erythrocyte nucleosome carrier …
TRF1 = conditions: 20 mM Hepes pH 7.9, 100 mM NaCl, 50 mM KCl, 1 mM MgCl2, 0.1 mM EDTA, 1 mM DTT, 5% glycerol, 0.5 mg/ml BSA, 0.1% NP-40, chicken erythrocyte nucleosome carrier …
TRF1-Myb = conditions: histone octamer, salt dilution; 20 mM Hepes pH 7.9, 100 mM NaCl, 50 mM KCl, 1 mM MgCl2, 0.1 mM EDTA, 1 mM DTT, 5% glycerol, 0.5 mg/ml BSA, 0.1% NP-40, chicken erythrocyte nucleosome carrier …
TRF2-Myb = conditions: histone octamer, salt dilution; 20 mM Hepes pH 7.9, 100 mM NaCl, 50 mM KCl, 1 mM MgCl2, 0.1 mM EDTA, 1 mM DTT, 5% glycerol, 0.5 mg/ml BSA, 0.1% NP-40, chicken erythrocyte nucleosome carrier …
[1] = intact histone octamer, scale: fold higher affinity vs naked Tel2-601-Tel2
[2] = histone tails removed by trypsin

Tel2-601-Tel2 NCP
binding signal (TRF2ΔB; [1]): 3 | binding signal (TRF2AΔB; [1]): 2 | binding signal (TRF2; intact histone octamer, scale: fold lower affinity vs naked Tel2-601-Tel2): 2 | binding signal (TRF1; [1]): 3

Tel2-601-Tel2 tailless NCP
binding signal (fold lower affinity vs intact NCP) (TRF2ΔB; [2]): 2 | binding signal (fold lower affinity vs intact NCP) (TRF2AΔB; [2]): 3 | binding signal (fold higher affinity vs intact NCP) (TRF2; [2]): 2 | binding signal (fold lower affinity vs intact NCP) (TRF1; [2]): 3

Tel8-L NCP
binding signal (fold lower affinity vs naked Tel8-L) (TRF1-Myb): 11 | binding signal (fold lower affinity vs naked Tel8-L) (TRF2-Myb): 13 | binding signal (fold lower affinity vs naked Tel8-L) (TRF2; C1/2 extrapolated, 3 experiments, histone octamer, salt dilution): 100
